Source: the Human Domainome abundance scans (Beltran et al. 2025)
± gives the uncertainty stated by the source.

B1: Dynamin-binding protein, residues 242 to 304; numbered along this chain, Q6XZF7 (parent)
chain: EEPGTYGVALYRFQALEPNELDFEVGDKIRILATLEDGWLEGSLKGRTGIFPYRFVKLCPDTR

Variants of: B1
Experiment: abundance fitness (aPCA) (normalised: wild type 0, dead -1); higher = more abundant; growth selection in yeast, the domain comes from the species named
Settings: Homo sapiens
Variant G4K has an abundance fitness of -0.211 ± 0.15. G4Y gave an abundance fitness of -0.044 ± 0.059. For G4N, the abundance fitness was -0.032 ± 0.058. For E1M, the abundance fitness was -0.02 ± 0.17. Variant E1K has an abundance fitness of 0.009 ± 0.14. Variant E1N has an abundance fitness of -0.337 ± 0.087. Variant E1R has an abundance fitness of -0.063 ± 0.12. In the case of E1V, the abundance fitness is reported as -0.001 ± 0.052. Variant G46Q has an abundance fitness of -0.753 ± 0.16. Work on G46S yielded an abundance fitness of -0.474 ± 0.038. Work on G46E yielded an abundance fitness of -0.473 ± 0.12. In the case of G46R, the abundance fitness is reported as -0.612 ± 0.05. With G46Y the abundance fitness was -0.802 ± 0.065. With G7V the abundance fitness was 0.006 ± 0.049. G7A gave an abundance fitness of 0.36 ± 0.056. G7Q gave an abundance fitness of -0.258 ± 0.22. For G7N, the abundance fitness was -0.719 ± 0.11. With T62P the abundance fitness was 0.079 ± 0.06. Variant T62L has an abundance fitness of -0.214 ± 0.058. T62D gave an abundance fitness of 0.021 ± 0.051. For T62V, the abundance fitness was -0.04 ± 0.055. T62C gave an abundance fitness of -0.198 ± 0.062. Variant T62W has an abundance fitness of -0.37 ± 0.19. For G42K, the abundance fitness was -0.892 ± 0.19. In the case of G42C, the abundance fitness is reported as -0.859 ± 0.12. G42P gave an abundance fitness of -0.872 ± 0.29. Variant R30C has an abundance fitness of -0.367 ± 0.076. Work on R30I yielded an abundance fitness of -0.454 ± 0.087. Variant R30S has an abundance fitness of -0.41 ± 0.062. In the case of R30T, the abundance fitness is reported as -0.644 ± 0.12. With A33V the abundance fitness was -0.445 ± 0.084. A33C showed an abundance fitness of -0.291 ± 0.074. Work on A33D yielded an abundance fitness of -0.24 ± 0.074. With A33E the abundance fitness was -0.578 ± 0.26. A33N gave an abundance fitness of 0.017 ± 0.058. In the case of A33Y, the abundance fitness is reported as -0.568 ± 0.095. In the case of E17I, the abundance fitness is reported as -0.783 ± 0.12. In the case of E17W, the abundance fitness is reported as -0.488 ± 0.14. For E17V, the abundance fitness was -0.4 ± 0.063. E17K showed an abundance fitness of 0.391 ± 0.091. Work on V8F yielded an abundance fitness of -0.373 ± 0.075. For V8H, the abundance fitness was -0.321 ± 0.11. For E2G, the abundance fitness was -0.166 ± 0.054. For E24M, the abundance fitness was -0.313 ± 0.2. In the case of E24Y, the abundance fitness is reported as -0.423 ± 0.079. E24V showed an abundance fitness of -0.471 ± 0.06. In the case of F55Q, the abundance fitness is reported as -0.774 ± 0.12. Work on F55K yielded an abundance fitness of -0.748 ± 0.14. For F55R, the abundance fitness was -0.621 ± 0.049. In the case of F55H, the abundance fitness is reported as -0.189 ± 0.041. With F55E the abundance fitness was -0.67 ± 0.1. In the case of I31D, the abundance fitness is reported as -0.743 ± 0.13. With I31L the abundance fitness was -0.702 ± 0.097. I31Q showed an abundance fitness of -0.084 ± 0.2. For D61Q, the abundance fitness was -0.178 ± 0.14. In the case of D61G, the abundance fitness is reported as -0.063 ± 0.06. D61W showed an abundance fitness of -0.195 ± 0.1. In the case of C59Y, the abundance fitness is reported as 0.007 ± 0.051. C59N gave an abundance fitness of -0.393 ± 0.09. Variant C59V has an abundance fitness of 0.024 ± 0.047. For C59F, the abundance fitness was 0.006 ± 0.053. C59L gave an abundance fitness of -0.049 ± 0.067. In the case of C59G, the abundance fitness is reported as -0.225 ± 0.048. For C59Q, the abundance fitness was 0.117 ± 0.13. For K28L, the abundance fitness was -0.57 ± 0.11. Work on K28P yielded an abundance fitness of -0.553 ± 0.18. Variant F23A has an abundance fitness of -0.585 ± 0.1. In the case of F23N, the abundance fitness is reported as -0.805 ± 0.14. F23G gave an abundance fitness of -0.682 ± 0.094. F23P showed an abundance fitness of -1.09 ± 0.31. With F23K the abundance fitness was -0.13 ± 0.17. Variant F23Q has an abundance fitness of -0.767 ± 0.39. F23V gave an abundance fitness of -0.334 ± 0.056. In the case of V25D, the abundance fitness is reported as -0.899 ± 0.12. Variant V25Q has an abundance fitness of -0.548 ± 0.22. Variant V25A has an abundance fitness of -0.089 ± 0.058. V25M showed an abundance fitness of -0.169 ± 0.16. In the case of V25T, the abundance fitness is reported as -0.412 ± 0.086. Work on T34F yielded an abundance fitness of -0.063 ± 0.058. For T34Q, the abundance fitness was -0.183 ± 0.12. For T34E, the abundance fitness was -0.038 ± 0.12. In the case of T34K, the abundance fitness is reported as -0.036 ± 0.095. Work on T34C yielded an abundance fitness of -0.323 ± 0.055.
